Test results reported in PMC9637899.

B1: activated C1s–CCP1–CCP2–SP [human] / ElpB_(182–378) [B. burgdorferi] (parent)
chain 1: MPCPKEDTPNSVWEPAKAKYVFRDVVQITCLDGFEVVEGRVGATSFYSTCQSNGKWSNSKLKCQPVDCGIPESIENGKVEDPESTLFGSVIRYTCEEPYYYMENGGGGEYHCAGNGSWVNEVLGPELPKCVPVCGVPREPFEEKQRIIGGSDADIKNFPWQVFFDNPWAGGALINEYWVLTAAHVVEGNREPTMYVGSTSVQTSRLAKSKMLTPEHVFIHPGWKLLEVPEGRTNFDNDIALVRLKDPVKMGPTVSPICLPGTSSDYNLMDGDLGLISGWGRTEKRDRAVRLKAARLPVAPLRKCKEVKVEKPTADAEAYVFTPNMICAGGEKGMDSCKGDSGGAFAVQDPNDKTKFYAAGLVSWGPQCGTYGLYTRVKNYVDWIMKTMQENSTPRED
chain 2: QERKAKAEKEAKEKAERQKQEEQQKRKAEKEREEQRKEAEKRQVDNEIRTLTGKIDEINRNIDVIKEQTSVGAQGVIDRITGPVYDDFTDGNKAIYKTWGDLEDDNDEGLGKLLKELSDTRHNLRTKLNEGNKAYIIDTRSTEPQLKENVSVSEIKSDLDELKSKLEEVKEYLEDKDNFEEIKEYVAGSEDNYDEED

Variants of: B1
Test: SPR
Settings: with ElpB_(182–378) [B. burgdorferi]; steady-state response at the highest analyte concentration plotted (about 5e-7 M on the x axis); ElpB182-378 immobilized, C1s construct injected; parent: 79; read off a plot

Row | Variant | response [RU]
1 | chain 1 MPCPKEDTPNSVWEPAKAKYVFRDVVQITCLDGFEVVEGRVGATSFYSTCQSNGKWSNSKLKCQPVDCGIPESIENGKVEDPESTLFGSVIRYTCEEPYYYMENGGGGEYHCAGNGSWVNEVLGPELPKCVPVCGVPREPFEEKQRIIGGSDADIKNFPWQVFFDNPWAGGALINEYWVLTAAHVVEGNREPTMYVGSTSVQTSRLAKSKMLTPEHVFIHPGWKLLEVPEGRTNFDNDIALVRLKDPVKMGPTVSPICLPGTSSDYNLMDGDLGLISGWGRTEAADRAVALAAARLPVAPLRKCKEVKVEKPTADAEAYVFTPNMICAGGEKGMDSCKGDSGGAFAVQDPNDKTKFYAAGLVSWGPQCGTYGLYTRVKNYVDWIMKTMQENSTPRED [chain 1 K284A R285A R290A K292A] | 7
2 | chain 1 MPCPKEDTPNSVWEPAKAKYVFRDVVQITCLDGFAVVEGRVGATSFYSTCQSNGKWSNSKLKCQPVACGIPESIENGKVEDPESTLFGSVIRYTCEEPYYYMENGGGGEYHCAGNGSWVNEVLGPELPKCVPVCGVPREPFEEKQRIIGGSDADIKNFPWQVFFDNPWAGGALINEYWVLTAAHVVEGNREPTMYVGSTSVQTSRLAKSKMLTPEHVFIHPGWKLLEVPEGRTNFDNDIALVRLKDPVKMGPTVSPICLPGTSSDYNLMDGDLGLISGWGRTEAADRAVALAAARLPVAPLRKCKEVKVEKPTADAEAYVFTPNMICAGGEKGMDSCKGDSGGAFAVQDPNDKTKFYAAGLVSWGPQCGTYGLYTRVKNYVDWIMKTMQENSTPRED [chain 1 E35A D67A K284A R285A R290A K292A] | 0
